From patent publication US20230227537A1 (VIB VZW, published 2023)

Legend:
[1] = target: SARS-CoV-1 spike, full length, on cells or on pseudotyped virus (SARS-CoV-1, UniProt P59594 14-1255); experiment: cell-based or functional assay
[2] = target: SARS-CoV-2 RBD protein Avi-tag biotinylated (AcroBiosystems SPD-C82E9) (SARS-CoV-2, UniProt P0DTC2 330-518)
SARS-CoV RBD = SARS-CoV RBD (SARS-CoV-1, UniProt P59594 320-502)

B1: VHH72_h1 (VHH)
VHH: EVQLVESGGGLVQPGGSLRLSCAASGRTFSEYAMGWFRQAPGKEREFVATISWSGGSTYYTDSVKGRFTISRDNAKNTVYLQMNSLRPEDTAVYYCAAAGLGTVVSEWDYDYDYWGQGTLVTVSS
- IC50, VSV-dG SARS-CoV-1 spike pseudotype neutralization [1]: 0.491 µg/mL

B2: VHH72_h1(S56A) (VHH)
VHH: EVQLVESGGGLVQPGGSLRLSCAASGRTFSEYAMGWFRQAPGKEREFVATISWSGGATYYTDSVKGRFTISRDNAKNTVYLQMNSLRPEDTAVYYCAAAGLGTVVSEWDYDYDYWGQGTLVTVSS
- IC50, VSV-dG SARS-CoV-1 spike pseudotype neutralization [1]: 0.045 µg/mL
- fold better neutralization than parental VHH72 [1]: 10 fold

B3: SARS VHH-72 (VHH)
VHH: QVQLQESGGGLVQAGGSLRLSCAASGRTFSEYAMGWFRQAPGKEREFVATISWSGGSTYYTDSVKGRFTISRDNAKNTVYLQMNSLKPDDTAVYYCAAAGLGTVVSEWDYDYDYWGQGTQVTVSS
- IC50 [2]: 16 nM

B4: VHH72_h1 (E1D) (VHH)
VHH: DVQLVESGGGLVQPGGSLRLSCAASGRTFSEYAMGWFRQAPGKEREFVATISWSGGSTYYTDSVKGRFTISRDNAKNTVYLQMNSLRPEDTAVYYCAAAGLGTVVSEWDYDYDYWGQGTLVTVSS
- koff (SARS-CoV RBD): 0.00219 s⁻¹
